# Assay results reported in patent US20240382610A1 (TALLAC THERAPEUTICS, published 2024).
# Where a chain is given by its changes, count along the chain named.
# T1: Human nectin-4 ECD-6His (TNT-175) (human, UniProt Q96NY8 32-349)
# T1 construct: the entry holds the extracellular domain with the C-terminal 6His tag
# T1 sequence: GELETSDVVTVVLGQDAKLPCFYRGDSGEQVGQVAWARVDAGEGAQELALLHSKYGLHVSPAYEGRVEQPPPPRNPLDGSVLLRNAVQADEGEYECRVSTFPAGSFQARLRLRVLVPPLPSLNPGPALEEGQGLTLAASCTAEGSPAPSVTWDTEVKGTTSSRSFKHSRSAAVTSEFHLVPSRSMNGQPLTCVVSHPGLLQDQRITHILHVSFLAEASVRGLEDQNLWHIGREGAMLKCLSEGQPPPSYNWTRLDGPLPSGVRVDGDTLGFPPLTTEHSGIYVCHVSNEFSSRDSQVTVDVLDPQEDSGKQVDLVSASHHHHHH
# T2: Mouse nectin-4 ECD-6His (TNT-250) (mouse, UniProt Q8R007 31-347)
# T2 construct: entry includes the 6His tag; also called mouse nectin-4-LCD
# T2 sequence: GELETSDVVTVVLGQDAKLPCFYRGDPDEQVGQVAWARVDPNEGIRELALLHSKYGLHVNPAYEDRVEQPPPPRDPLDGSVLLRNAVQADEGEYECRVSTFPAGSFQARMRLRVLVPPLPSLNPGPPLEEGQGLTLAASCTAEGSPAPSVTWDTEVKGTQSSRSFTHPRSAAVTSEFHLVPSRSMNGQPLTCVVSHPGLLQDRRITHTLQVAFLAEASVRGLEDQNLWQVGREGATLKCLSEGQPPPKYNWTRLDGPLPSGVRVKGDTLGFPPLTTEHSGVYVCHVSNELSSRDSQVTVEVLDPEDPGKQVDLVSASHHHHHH
# T3: Human nectin-4-IgV-6His (TNT-252) (human, UniProt Q96NY8 32-147)
# T3 construct: entry includes the 6His tag
# T3 sequence: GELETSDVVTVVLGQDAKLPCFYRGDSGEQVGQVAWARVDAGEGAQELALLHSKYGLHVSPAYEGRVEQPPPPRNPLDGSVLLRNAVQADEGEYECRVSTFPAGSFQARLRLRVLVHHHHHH
# T4: Cyno nectin-4 ECD-6His (TNT-255) (cynomolgus, UniProt Q96NY8 32-349 (human entry))
# T4 construct: entry includes the 6His tag
# T4 chain: T1 sequence with V39A, I230V
# B1: TNT-333 (antibody, V domains shown)
# VH: QVQLQESGPGLVKPSETLSLTCTISGGSISSYYWSWIRQPPGKGLEWIGYIFYIGNTNYYPSLKSRVTISVDASKNQFSLKLSSVTAADTAVYYCARSYPYWYFDLWGRGTLVTVSS
# VL: QSVLTQPPSVSAAPGQKVTISCSGSSSNIGNNYVSWYQQLPGTAPKLLISDNNKRPSGIPDRFSGSKSGTSATLGITGLQTGDEADYYCGTWDSSLSAGVVFGGGTKLTVLG
# notes: human IgG1
# B2: TNT-336 (antibody, V domains shown)
# VH: KVQLVESGGGLVQPGGSLRLSCEASGFTFSNYWMHWVRQVPGEGLVWVSRLNNGGTSTRYADSVKSRFTISRDNAKNTLYLQMNSLRAEDTAVYYCVRDWYFDLWGRGTLVTVSS
# VL: QLVLTQSPSASASLGASVKLTCTLSSGHSFYAIAWHQQQPEKGPRYLMQVNSNGSHNKGDGIPDRFSGSSSGAERYLTISSLQSEDEADYYCQSWDTDIWVFGGGTKLTVLG
# notes: human IgG1
# B3: TNT-332 (antibody, V domains shown)
# VH: QVQLVQSGAEAKKPGASVRVSCKTSGYTFTNYYIHWVRQAPGQGLEWMGIINPTLDSTSYAQKFQDRVTMTRDTSTNTDYMDLSSLRFEDTAVYYCARSAGFDAFDIWGQGTMVTVSS
# VL: DIQLTQSPSFLSASVGDKVTITCRASQGINSYLAWYQQKPGKAPKLLIYSASTLQGGVPSRFSGSGSGTEFTLTISNLQPADFATYCCQQLNSYPFTFGPGTKVDIKR
# notes: human IgG1
# B4: TNT-335 (antibody, V domains shown)
# VH: QVQLQESGPGLVKPSETLSLTCTVSGGSISSYYWSWIRQPPGKGLEWIGYIHYSGISNYNPSLKSRVAISLDTSNNHFSLKLTSLTAADTAVYFCARGSYWFDPWGQGTLVTVSS
# VL: QSVLTQPPSASGTPGQRVTISCSGSSSNIGSDYIYWYQQLPGTAPKLLIYSNHQRPSGVPDRFSGSKSGTSASLAISGLRSEDEADYYCAAWEDSLSGPIFGGGTKLTVLG
# notes: human IgG1
# B5: TNT-337 (antibody, V domains shown)
# VH: EVQLVESGGGLVQPGGSLRLSCAASGFTFSNYDMSWVRQAPGKGLEWVATISSGGSYTYYVDSVKGRFTISRDNAKNSLYLQMNSLRAEDTAVYYCARQELGSYYAMDYWGQGTTVTVSS
# VL: DIVMTQTPLSLPVTPGEPASISCRSSQSIVHSNANTYLEWYLQKPGQSPQLLIYKVSNRFSGVPDRFSGSGSGTDFTLKISRVEAEDVGVYYCFQGSHVPYTFGGGTKVEIKR
# notes: human IgG1
# B6: TNT-334 (antibody, V domains shown)
# VH: EVQLVESGGGLVQPGGSLRLSCAASGFTFSRYWMHWVRQAPGKGLVWVSRINSDGSSSNYADSVKGRFTFSRDNAKNTLYLQMNSLRAEDTAVYFCVRDNWYFDYWGQGTLVTVSS
# VL: EIVMTQSPATLPVSPGERATLSCRASQSVSINLAWYQQKPGQAPRLLIYGVSTRATGIPARFSGSGSGTEFTLTISGLQSEDFAVYYCQQYNNWPRTFGQGTKVEIKR
# notes: human IgG1
# Molecular target: T1, Human nectin-4 ECD-6His (TNT-175)
# Assay: SPR Biacore 8K, mAb on protein A
# Protocol: (§1) The running buffer was 10 mM HEPES, pH 7.4, 150 mM NaCl, 3 mM EDTA, 0.05% (v/v) Surfactant P20 (HBS-EP+). […] The nectin-4 analytes were injected in either single-cycle kinetics or multi-cycle kinetics mode at nominal starting concentrations of 300 nM or 900 nM with 3-fold serial dilutions. Association times were monitored for 120 s, and dissociation times were monitored 1800 s at 30 μL/min flow rate. The surfaces were regenerated with 10 mM glycine at pH1.7 or 75 mM phosphoric acid at pH1.6 for two pulses of 15 s at 30 μL/min flow rate.
# (§2) The data were processed and analyzed with Biacore 8K Evaluation Software Version 3.0.12.15655 (Cytiva, Global Life Sciences Solutions USA LLC, Marlborough, MA). […] The responses from the nearest buffer blank injection were then subtracted from the reference subtracted data (2-1) to yield double-referenced data. These double-reference data were fit to a simple 1:1 Langmuir binding model with mass transport to determine the apparent association (ka) and dissociation rate constants (kd). The apparent equilibrium dissociation constant or affinity constant was then calculated based on their ratio as (KD=kd/ka).
row,Kd,Binder
1,6.18 nM,B1
2,111 nM,B2
3,7.6 nM,B3
4,1.83 nM,B4
5,217 nM,B5
6,71.5 nM,B6

# Molecular target: T2, Mouse nectin-4 ECD-6His (TNT-250)
# Assay: SPR Biacore 8K, mAb on protein A
# Protocol: as §1, §2
Kd,Binder,binding result
,B1,no binding (tested: up to 300 or 900 nM analyte)
,B2,no binding (tested: up to 300 or 900 nM analyte)
,B3,no binding (tested: up to 300 or 900 nM analyte)
,B4,no binding (tested: up to 300 or 900 nM analyte)
318 nM,B5,
,B6,no binding (tested: up to 300 or 900 nM analyte)

# Molecular target: T3, Human nectin-4-IgV-6His (TNT-252)
# Assay: SPR Biacore 8K, mAb on protein A
# Protocol: as §1, §2
Kd,Binder,binding result
,B1,no binding (tested: up to 300 or 900 nM analyte)
104 nM,B2,
,B3,no binding (tested: up to 300 or 900 nM analyte)
0.985 nM,B4,
195 nM,B5,
46.3 nM,B6,

# Molecular target: T4, Cyno nectin-4 ECD-6His (TNT-255)
# Assay: SPR Biacore 8K, mAb on protein A
# Protocol: as §1, §2
Kd,Binder,binding result
7.43 nM,B1,
,B2,no binding (tested: up to 300 or 900 nM analyte)
7.2 nM,B3,
1.28 nM,B4,
286 nM,B5,
95.3 nM,B6,
